Where a chain is given by its changes, count along the chain named.

Assay [1] has as its target T1, human TREM2 (hTREM2), expressed on cells (human, UniProt Q9NZC2 19-230).
T1 construct: Signal peptide 1-18 as stated left out; On CHO cells co-expressed with hDAP12; on hM2A macrophages endogenous; also called WT-TREM2; CHO-hDAP12-hTREM2
T1 sequence: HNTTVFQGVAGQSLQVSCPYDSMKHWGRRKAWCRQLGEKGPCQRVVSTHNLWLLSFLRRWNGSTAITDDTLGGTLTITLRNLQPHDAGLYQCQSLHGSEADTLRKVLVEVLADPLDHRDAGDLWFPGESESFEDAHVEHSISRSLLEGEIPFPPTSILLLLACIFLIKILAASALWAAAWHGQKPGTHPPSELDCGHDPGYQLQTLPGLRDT
The experiment in a line: FACS, hM2A macrophages. (In flow cytometry, cells or beads pass a laser one at a time.)

The target in another assay is T2, hTREM2 ECD (19-174)-hFc (human, UniProt Q9NZC2 19-174, biotinylated in the -bio form).
T2 construct: Plain and biotinylated forms are kept as one molecule; also called hTREM2 ECD (19-174)-hFc-bio; hTREM2 Fc
T2 sequence: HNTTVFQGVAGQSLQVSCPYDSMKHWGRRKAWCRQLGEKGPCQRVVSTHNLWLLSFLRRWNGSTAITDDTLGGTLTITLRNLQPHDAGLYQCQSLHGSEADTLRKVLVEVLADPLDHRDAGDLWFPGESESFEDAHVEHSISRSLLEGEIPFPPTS
Description: direct ELISA. As to the method:
Antigens were immobilized on microtiter plates (see Table 8). Plates were blocked and incubated with antibodies such as Fab containing crude E. coli lysates or purified Fab or IgG samples. Bound antibodies were detected using respective alkaline-phosphatase (AP) coupled secondary antibodies in combination with ‘AttoPhos’ fluorescence substrate. Multiple washing steps were performed between individual assay steps.
A general note: In an ELISA, binding on a coated surface is turned into a signal by an enzyme label.

Assay [2] concerns the target T1, human TREM2 (hTREM2), expressed on cells. The experiment in a line: FACS, CHO-hDAP12-hTREM2 cells.
The target is the same in assay [3]. The experiment in a line: FACS, CHO-DAP12-hTREM2 cells.
Assay [4] concerns the target T3, cyTREM2 ECD (19-174)-APP-Avi (cynomolgus, UniProt A0A2K5UY34 49-204).
T3 construct: range 19-174
T3 sequence: T2 sequence with A10E, W60R, L89F, F125V
Description: SPR Biacore. Background: Surface plasmon resonance follows binding to a sensor surface in real time, without labels.

Another assay addresses T4, mTREM2 ECD (19-168)-His (mouse, UniProt Q99NH8 19-168).
T4 construct: range 19-168
T4 sequence (looked up): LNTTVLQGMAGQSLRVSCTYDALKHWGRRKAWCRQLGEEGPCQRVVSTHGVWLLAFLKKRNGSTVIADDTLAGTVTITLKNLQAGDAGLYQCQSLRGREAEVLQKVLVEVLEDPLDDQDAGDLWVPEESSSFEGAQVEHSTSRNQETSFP
The experiment in a line: SPR Biacore.

In the next assay the target is T5, hTREM2 ECD (19-174)-His (human, UniProt Q9NZC2 19-174).
T5 sequence: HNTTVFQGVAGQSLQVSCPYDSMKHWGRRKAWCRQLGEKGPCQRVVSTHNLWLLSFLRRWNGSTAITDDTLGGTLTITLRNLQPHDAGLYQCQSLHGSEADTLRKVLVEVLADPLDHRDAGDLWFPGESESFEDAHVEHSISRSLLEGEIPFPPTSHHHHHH
Description: SPR Biacore.

B1: MOR042596 (full IgG) (antibody, V domains shown)
VH: QVQLVQSGAEVKKPGASVKVSCKASGYTFTGYHMSWVRQAPGQGLEWMGVINPVSGNTVYAQKFQGRVTMTRDTSISTAYMELSRLRSEDTAVYYCARIPSYTYAFDYWGQGTLVTVSS
VL: DIQMTQSPSSLSASVGDRVTITCRASQDISNYLAWYQQKPGKAPKLLIYRASSLQSGVPSRFSGSGSGTDFTLTISSLQPEDFATYYCQQHGHSPTTFGQGTKVEIKR
notes: Parental antibody of MOR044698; VH1B k1
As for B1, the EC50 (in general, the concentration needed to bring the measured effect to its halfway point) stood at 37 nM in assay [1], 2.4 nM with hTREM2 ECD (19-174)-hFc, 3.4 nM in assay [2] and 3.4 nM in assay [3]. Besides, the Kd stood at 6.6 nM in assay [4], 0.9 nM in the assay with mTREM2 ECD (19-168)-His and 12 nM with hTREM2 ECD (19-174)-His.
